Measured values published in US20230287120A1 (ALLOGENE THERAPEUTICS, published 2023).

T1: Flag tagged recombinant DLL3 (Adipogen) (Homo sapiens (Human), UniProt Q9NYJ7 27-492)
T1 construct: Bought reagent; also called Flag-DLL3
T1 sequence: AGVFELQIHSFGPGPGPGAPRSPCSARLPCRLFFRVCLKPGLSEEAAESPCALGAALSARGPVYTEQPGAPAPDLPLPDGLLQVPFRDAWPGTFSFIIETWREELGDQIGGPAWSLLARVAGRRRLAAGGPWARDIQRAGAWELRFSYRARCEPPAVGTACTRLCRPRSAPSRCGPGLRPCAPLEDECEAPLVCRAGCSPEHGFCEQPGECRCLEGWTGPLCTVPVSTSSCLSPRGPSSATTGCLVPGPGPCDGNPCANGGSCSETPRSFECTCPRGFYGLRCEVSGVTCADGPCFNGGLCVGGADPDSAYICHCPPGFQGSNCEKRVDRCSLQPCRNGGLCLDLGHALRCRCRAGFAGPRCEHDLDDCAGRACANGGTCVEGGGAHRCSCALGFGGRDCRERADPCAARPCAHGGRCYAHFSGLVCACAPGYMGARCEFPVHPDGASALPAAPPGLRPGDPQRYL

T2: full length human DLL3 with N-terminal HA tag, expressed on CHO cells (human, UniProt Q9NYJ7 27-618)
T2 construct: also called Human DLL3 complete ECD
T2 sequence: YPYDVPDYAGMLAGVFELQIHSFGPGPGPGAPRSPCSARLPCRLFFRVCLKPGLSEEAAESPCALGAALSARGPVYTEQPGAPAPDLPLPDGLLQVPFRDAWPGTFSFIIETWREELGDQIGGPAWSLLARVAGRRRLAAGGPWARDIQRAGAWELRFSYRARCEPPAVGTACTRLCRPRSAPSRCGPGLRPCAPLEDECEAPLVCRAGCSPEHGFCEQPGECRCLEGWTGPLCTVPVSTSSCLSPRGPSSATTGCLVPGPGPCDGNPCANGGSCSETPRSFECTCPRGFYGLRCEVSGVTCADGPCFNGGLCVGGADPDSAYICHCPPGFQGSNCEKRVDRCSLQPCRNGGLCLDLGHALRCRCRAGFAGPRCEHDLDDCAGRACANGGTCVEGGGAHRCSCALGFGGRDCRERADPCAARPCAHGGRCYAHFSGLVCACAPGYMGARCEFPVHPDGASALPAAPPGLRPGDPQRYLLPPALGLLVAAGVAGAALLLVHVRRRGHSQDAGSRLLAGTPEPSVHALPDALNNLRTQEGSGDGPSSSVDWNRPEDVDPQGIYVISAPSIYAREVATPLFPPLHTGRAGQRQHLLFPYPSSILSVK


Legend:
[1] = molecular target: T1, Flag tagged recombinant DLL3 (Adipogen); test: flow cytometry, primary T cells with the CAR, Flag tagged recombinant DLL3, PE anti-Flag
[2] = molecular target: T2, full length human DLL3 with N-terminal …; test: flow cytometry on CHO cells with full length and truncated human DLL3; column Binds to DLL3 Domain
Procedure: The samples were analyzed by flow cytometry. […] Signals from the PE channel are shown on the x-axis and counts are shown on the y-axis.

[3] = molecular target: T1, Flag tagged recombinant DLL3 (Adipogen); test: flow cytometry, percent of T cells that recognise recombinant DLL3, Donor 116
Procedure: (§1) To determine the percentage of T cells that were successfully transduced with DLL3 CAR, T cells were first incubated with 1 ug/ml Flag tagged recombinant DLL3 (Adipogen) in PBS+1% BSA for 20 minutes at 4 C.

[4] = molecular target: T1, Flag tagged recombinant DLL3 (Adipogen); test: flow cytometry, percent of T cells that recognise recombinant DLL3, Donor 419
Procedure: as §1

[5] = molecular target: T1, Flag tagged recombinant DLL3 (Adipogen); test: flow cytometry, primary T cells with the CAR, 1 ug/ml Flag tagged recombinant DLL3, PE anti-Flag
Procedure: as §1

| Binder | binding result [2] | Transduction efficiency [3] [%] | Transduction efficiency [4] [%] | other results |
| --- | --- | --- | --- | --- |
| 2G1 RSR (other, member of group m44; also called 2G1-RSR anti-DLL3 CAR with safety switch, on primary T cells) CAR: GGGGSCPYSNPSLCGGGGSQLQLQESGPGLVKPSETLSLTCTVSGGSISSSSYYWGWIRQPPGKGLEWIGSIYYSGNIYHNPSLKSRVSISVDTSKNQFSLRLSSVTAADTAVYYCAREIIVGATHFDYWGQGTLVTVSSGGGGSGGGGSGGGGSGGGGSAIQMTQSPSSLSASVGDRVTITCRASQGIRNDLGWYQQKPGKAPELLIYAASSLQSGVPSRFSGSGSGTDFTLTISSLQPEDFATYYCLQDYNYPLTFGPGTKVDIKGGGGSCPYSNPSLCGGGGSTTTPAPRPPTPAPTIASQPLSLRPEACRPAAGGAVHTRGLDFACDIYIWAPLAGTCGVLLLSLVITKRGRKKLLYIFKQPFMRPVQTTQEEDGCSCRFPEEEEGGCELRVKFSRSADAPAYQQGQNQLYNELNLGRREEYDVLDKRRGRDPEMGGKPRRKNPQEGLYNELQKDKMAEAYSEIGMKGERRRGKGHDGLYQGLSTATKDTYDALHMQALPPR |  |  |  | Rec-DLL3+ gate, percent of live CD3+ cells [1]: 60.7% |
| anti-DLL3 antibody 4F9 (antibody, V domains shown) VH: QVQLQQWGAGLLKPSETLSLTCAVYGGSFSGYYWTWIRQPPGKGLEWIGEITHSGSTNYNPSLKSRVSISVDTSKNQFSLKLSSVTAADTAVYYCARGEYGSGSRFDYWGQGTLVTVSS VL: AIQMTQSPSSLSASVGDRVAITCRASQGIRDDLGWYQQKPGKAPKLLIYAASSLQSGVPSRFSGSGSDTDFTLTISSLQPEDFATYYCLQDYDYPLTFGGGTKVEIK | binds |  |  |  |
| anti-DLL3 antibody 4G9 (antibody, V domains shown) VH: QVQLQQWGAGLLKPSETLSLTCAVYGGSFSGYYWSWIRQPPGKGLEWIGEITHSGSTNYNPSLKSRVSISVDTSKNQFSLKLSSVTAADTAVYYCARGEYGSGSRFDYWGQGTLVTVSS VL: AIQMTQSPSSLSASVGDRVALTCRASQGIRDDLGWYQQKPGKAPKLLIYAASSLQSGVPSRFSGSGSDTDFTLTISSLQPEDFATYYCLQDYDYPLTFGGGTKVEIK | binds |  |  |  |
| anti-DLL3 antibody 16H7 (antibody, V domains shown) VH: QVQLQQWGAGLLKPSETLSLTCAVFGGSFSGDYWSWIRQPPGKGLEWIGEINHSGITSFNPSLKSRVTISVDTSKNQFSLKLSSVTAADTAVYYCARGELGIPDNWGQGTLVTVSS VL: not shown | binds |  |  |  |
| anti-DLL3 antibody 2C3 (antibody, V domains shown) VH: QVQLQQWGGGLLKPSETLSLTCAVYGGSSSGNYWSWIRQPPGKRLEWIGEINHSGTTSYNPSLKSRVTISVDTSKNQFSLKLSSVTAADTAVYYCARGELGIADSWGQGTLVTVSS VL: not shown | binds |  |  |  |
| 2G1 (other, also called anti-DLL3 CAR with 2G1 scFv, on primary T cells) CAR: QLQLQESGPGLVKPSETLSLTCTVSGGSISSSSYYWGWIRQPPGKGLEWIGSIYYSGNIYHNPSLKSRVSISVDTSKNQFSLRLSSVTAADTAVYYCAREIIVGATHFDYWGQGTLVTVSSGGGGSGGGGSGGGGSGGGGSAIQMTQSPSSLSASVGDRVTITCRASQGIRNDLGWYQQKPGKAPELLIYAASSLQSGVPSRFSGSGSGTDFTLTISSLQPEDFATYYCLQDYNYPLTFGPGTKVDIKTTTPAPRPPTPAPTIASQPLSLRPEACRPAAGGAVHTRGLDFACDIYIWAPLAGTCGVLLLSLVITKRGRKKLLYIFKQPFMRPVQTTQEEDGCSCRFPEEEEGGCELRVKFSRSADAPAYQQGQNQLYNELNLGRREEYDVLDKRRGRDPEMGGKPRRKNPQEGLYNELQKDKMAEAYSEIGMKGERRRGKGHDGLYQGLSTATKDTYDALHMQALPPR |  | 66.9 | 49.1 | Rec-DLL3 gate, percent of live CD3+ cells [5]: 69.1% |
| 11H7 (other, also called anti-DLL3 CAR with 11H7 scFv, on primary T cells) CAR: QVQLQQWGAGLLKPSETLSLTCAVYGGSFSAYYWNWIRQPPGKGLEWIGEINHSGSTNYNPSLKSRVTISVDTSKNQFSLNLTSLTAADTAVYYCARGLDSSGWYPFDYWGQGTLVTVSSGGGGSGGGGSGGGGSGGGGSDIQMTQSPSSVSASVGDRVTITCRASQGISSWLAWYQQKPGKAPKLLIYAASSLQSGVPSRFSGSGSGTDFTLTISSLQPEDFATYYCQQADSFPFTFGPGTKVDIKTTTPAPRPPTPAPTIASQPLSLRPEACRPAAGGAVHTRGLDFACDIYIWAPLAGTCGVLLLSLVITKRGRKKLLYIFKQPFMRPVQTTQEEDGCSCRFPEEEEGGCELRVKFSRSADAPAYQQGQNQLYNELNLGRREEYDVLDKRRGRDPEMGGKPRRKNPQEGLYNELQKDKMAEAYSEIGMKGERRRGKGHDGLYQGLSTATKDTYDALHMQALPPR |  | 52.4 | 40.2 |  |
| anti-DLL3 antibody 11H7 (antibody, V domains shown) VH: QVQLQQWGAGLLKPSETLSLTCAVYGGSFSAYYWNWIRQPPGKGLEWIGEINHSGSTNYNPSLKSRVTISVDTSKNQFSLNLTSLTAADTAVYYCARGLDSSGWYPFDYWGQGTLVTVSS VL: DIQMTQSPSSVSASVGDRVTITCRASQGISSWLAWYQQKPGKAPKLLIYAASSLQSGVPSRFSGSGSGTDFTLTISSLQPEDFATYYCQQADSFPFTFGPGTKVDIK | binds |  |  |  |
| 6H1 (other, also called anti-DLL3 CAR with 6H1 scFv, on primary T cells) CAR: QITLRESGPTLVKPTQTLTLTCTFSGFSLSTSGLGVGWIRQPPGEALEWLALIYWNDDKRYSPSLKSRLSITKDTSKNQVVLIMTNMDPVDTATYYCVHRRIAAPGSVYWGQGTLVTVSSGGGGSGGGGSGGGGSGGGGSDIQMTQSPSSVSASVGDRVTITCRASQGISSWLAWYQQKPGKAPKLLISAASSLQSGVPSRFSGSGSGTDFTLTISSLQPEDFATYYCHQANSFPFTFGQGTKLEIKTTTPAPRPPTPAPTIASQPLSLRPEACRPAAGGAVHTRGLDFACDIYIWAPLAGTCGVLLLSLVITKRGRKKLLYIFKQPFMRPVQTTQEEDGCSCRFPEEEEGGCELRVKFSRSADAPAYQQGQNQLYNELNLGRREEYDVLDKRRGRDPEMGGKPRRKNPQEGLYNELQKDKMAEAYSEIGMKGERRRGKGHDGLYQGLSTATKDTYDALHMQALPPR |  | 5.81 | 2.7 |  |
| anti-DLL3 antibody 9H12-K (antibody, V domains shown) VH: QVQLVQSGAEVKKPGASVKVSCKASGYTFTGYSIHWVRQAPGQGLEWMGWINPNSGGTFYAQKFQGRVTMTRDTSISTVYMELSRLRSDDTAVYYCARDGWGDYYYYGLDVWGQGTTVTVSL VL: DIQMTQSPSSVSASVGDRVTITCRASQDISSWLAWYQQKPGKAPKLLIYTASSLQGGVPSRFSGSGSGTDFTLTISSLQPEDLATYSCQQANVFPYTFGQGTKLEIK | binds |  |  |  |
| 17A2 (other, also called anti-DLL3 CAR with 17A2 scFv, on primary T cells) CAR: QVQLQESGPGLVKPSGTLSLTCVVFGDSISSSNWWSWVRQPPGKGLEWIGEVFHSGSTNYNPSLKSRVTISVDKSKNQFSLKLSSVTAADTAVYYCARAAVAGALDYWGQGTLVTVSSGGGGSGGGGSGGGGSGGGGSDIVMTQSPDSLAVSLGERATINCKSSQSVLYSSNNKNYLAWYQQKPGQPPNLLVYWASTRESGVPDRFSGAGSGTDFTLTISSLQAEDVAVYYCQQYYGTSWTFGQGTKVEIKTTTPAPRPPTPAPTIASQPLSLRPEACRPAAGGAVHTRGLDFACDIYIWAPLAGTCGVLLLSLVITKRGRKKLLYIFKQPFMRPVQTTQEEDGCSCRFPEEEEGGCELRVKFSRSADAPAYQQGQNQLYNELNLGRREEYDVLDKRRGRDPEMGGKPRRKNPQEGLYNELQKDKMAEAYSEIGMKGERRRGKGHDGLYQGLSTATKDTYDALHMQALPPR |  | 68.6 | 43.3 | Rec-DLL3 gate, percent of live CD3+ cells [5]: 59.1% |
| 3F2 (other, also called anti-DLL3 CAR with 3F2 scFv, on primary T cells) CAR: QVQLQESGPGLVKPSGTLSLTCAVSGGSISSNNWWSWVRQPPGKGLEWIGDIHHSGSTNYKPSLKSRVTISVDKSKNQFSLNLISVTAADTAVYYCAREAGGYFDYWGQGILVTVSSGGGGSGGGGSGGGGSGGGGSDIQMTQSPSTLSASVGDRVTITCRASQSISSWLAWYQQKPGKAPKLLISKASSLESGVPSRFSGSGSGPEFTLTISSLQPADFATYYCQQYNSYSTFGQGTKLEIKTTTPAPRPPTPAPTIASQPLSLRPEACRPAAGGAVHTRGLDFACDIYIWAPLAGTCGVLLLSLVITKRGRKKLLYIFKQPFMRPVQTTQEEDGCSCRFPEEEEGGCELRVKFSRSADAPAYQQGQNQLYNELNLGRREEYDVLDKRRGRDPEMGGKPRRKNPQEGLYNELQKDKMAEAYSEIGMKGERRRGKGHDGLYQGLSTATKDTYDALHMQALPPR |  | 16.3 | 12.2 | Rec-DLL3 gate, percent of live CD3+ cells [5]: 58% |
